# T1: Pol31 (S. cerevisiae, UniProt P46957 1-487)
# T1 construct: Pol31, noncatalytic subunit of DNA polymerase delta, S. cerevisiae; also called purified Pol31; source: S. cerevisiae BJ5464, overexpressed, purified on glutathione–Sepharose 4B beads, eluted by PreScission protease cleavage; not shown: GST, N-terminal, cleaved
# T1 sequence (looked up): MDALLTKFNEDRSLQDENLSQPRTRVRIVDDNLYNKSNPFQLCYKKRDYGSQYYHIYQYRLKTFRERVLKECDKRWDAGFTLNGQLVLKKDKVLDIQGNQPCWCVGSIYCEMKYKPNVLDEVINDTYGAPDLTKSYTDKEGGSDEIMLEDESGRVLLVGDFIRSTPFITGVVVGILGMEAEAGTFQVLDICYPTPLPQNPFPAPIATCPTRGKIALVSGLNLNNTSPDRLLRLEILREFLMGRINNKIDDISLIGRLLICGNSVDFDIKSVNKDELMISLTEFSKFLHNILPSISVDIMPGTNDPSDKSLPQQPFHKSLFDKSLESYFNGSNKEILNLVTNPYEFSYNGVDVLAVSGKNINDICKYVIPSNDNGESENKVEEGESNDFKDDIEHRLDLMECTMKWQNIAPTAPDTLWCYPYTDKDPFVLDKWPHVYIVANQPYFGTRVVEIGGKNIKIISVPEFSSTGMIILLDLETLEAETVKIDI
# T2: Rev1 (S. cerevisiae, UniProt P12689 1-985)
# T2 construct: Rev1, translesion synthesis DNA polymerase, S. cerevisiae; also called TLS polymerase Rev1; purified Rev1; source: S. cerevisiae BJ5464, overexpressed, purified on glutathione–Sepharose 4B beads, eluted by PreScission protease cleavage; not shown: GST, N-terminal, cleaved
# T2 sequence (looked up): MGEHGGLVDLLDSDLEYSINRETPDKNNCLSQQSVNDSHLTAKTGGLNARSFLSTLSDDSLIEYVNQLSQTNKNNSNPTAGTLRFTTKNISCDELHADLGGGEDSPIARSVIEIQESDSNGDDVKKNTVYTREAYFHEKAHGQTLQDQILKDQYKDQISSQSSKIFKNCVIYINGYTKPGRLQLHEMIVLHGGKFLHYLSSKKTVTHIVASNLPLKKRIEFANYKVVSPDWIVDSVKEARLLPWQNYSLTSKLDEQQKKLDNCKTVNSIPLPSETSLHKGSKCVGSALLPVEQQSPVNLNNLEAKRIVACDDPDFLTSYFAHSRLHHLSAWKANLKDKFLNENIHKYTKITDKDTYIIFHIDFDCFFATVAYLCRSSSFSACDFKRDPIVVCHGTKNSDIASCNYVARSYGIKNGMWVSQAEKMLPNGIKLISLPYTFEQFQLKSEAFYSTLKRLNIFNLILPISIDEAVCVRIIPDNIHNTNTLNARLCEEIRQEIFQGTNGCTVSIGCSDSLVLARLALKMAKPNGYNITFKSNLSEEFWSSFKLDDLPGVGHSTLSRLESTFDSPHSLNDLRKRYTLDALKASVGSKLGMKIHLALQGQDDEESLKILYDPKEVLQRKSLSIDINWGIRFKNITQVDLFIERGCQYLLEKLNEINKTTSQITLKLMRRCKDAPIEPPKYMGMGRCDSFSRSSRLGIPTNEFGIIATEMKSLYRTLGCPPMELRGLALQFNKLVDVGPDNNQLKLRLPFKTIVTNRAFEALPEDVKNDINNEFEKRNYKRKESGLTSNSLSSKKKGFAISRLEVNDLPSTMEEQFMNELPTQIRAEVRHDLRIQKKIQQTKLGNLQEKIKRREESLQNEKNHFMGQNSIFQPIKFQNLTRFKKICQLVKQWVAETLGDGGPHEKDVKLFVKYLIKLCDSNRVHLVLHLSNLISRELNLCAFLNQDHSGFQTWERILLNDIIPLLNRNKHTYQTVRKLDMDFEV
# B1: GST–Pol32 (natural protein, S. cerevisiae, UniProt P47110 1-350, looked up)
# chain: MDQKASYFINEKLFTEVKPVLFTDLIHHLKIGPSMAKKLMFDYYKQTTNAKYNCVVICCYKDQTIKIIHDLSNIPQQDSIIDCFIYAFNPMDSFIPYYDIIDQKDCLTIKNSYELKVSESSKIIERTKTLEEKSKPLVRPTARSKTTPEETTGRKSKSKDMGLRSTALLAKMKKDRDDKETSRQNELRKRKEENLQKINKQNPEREAQMKELNNLFVEDDLDTEEVNGGSKPNSPKETDSNDKDKNNDDLEDLLETTAEDSLMDVPKIQQTKPSETEHSKEPKSEEEPSSFIDEDGYIVTKRPATSTPPRKPSPVVKRALSSSKKQETPSSNKRLKKQGTLESFFKRKAK
# notes: Pol32, noncatalytic subunit of DNA polymerase delta, S. cerevisiae; source: S. cerevisiae BJ5464, overexpressed, purified on glutathione–Sepharose 4B beads; not shown: GST, N-terminal, kept
# Assays:
# Pol31 = target: T1, Pol31; assay: pull-down; GST–Pol32 (3 µg) or GST immobilised on glutathione–Sepharose beads, incubated with purified Pol31 (5 µg) and Rev1 (3 µg) together, overnight on ice; 50 mM Tris/HCl pH 7.5, 150 mM NaCl, 1 mM EDTA, 1 mM DTT, 10% glycerol, 0.01% Nonidet P-40; five washes, elution with 20 mM glutathione, SDS-PAGE; conditions: both partners purified
# Rev1 = target: T2, Rev1; assay: as above; conditions: both partners purified
binder,measurement,setting,value
B1,binding result,Pol31,binds
same,binding result,Rev1,binds
